From patent publication US9802942B2, “Substituted 4-methyl-pyrrolo[1,2-A]pyrimidine-8-carboxamide compounds and uses thereof for modulating glucocerebrosidase activity” (Northwestern University, priority 2015, dated 2017) come the findings set out here.

“And” between values parts separate entries of the source, which are not always exact repeats. Identical values can stand only once.

As usually defined, the AC50 is the concentration at which the activity in the assay is half-maximal. In general, Kd refers to the constant that tells how readily two partners part at equilibrium. A lower Kd goes with tighter binding.

Data set [1] addresses T1, glucocerebrosidase (GCase), recombinant wt. enzyme velaglucerase alfa (Homo sapiens, UniProt P04062).
T1 construct: purchased Shire Human Genetic Therapies, Inc. Vpriv
T1 sequence (P04062 40-536): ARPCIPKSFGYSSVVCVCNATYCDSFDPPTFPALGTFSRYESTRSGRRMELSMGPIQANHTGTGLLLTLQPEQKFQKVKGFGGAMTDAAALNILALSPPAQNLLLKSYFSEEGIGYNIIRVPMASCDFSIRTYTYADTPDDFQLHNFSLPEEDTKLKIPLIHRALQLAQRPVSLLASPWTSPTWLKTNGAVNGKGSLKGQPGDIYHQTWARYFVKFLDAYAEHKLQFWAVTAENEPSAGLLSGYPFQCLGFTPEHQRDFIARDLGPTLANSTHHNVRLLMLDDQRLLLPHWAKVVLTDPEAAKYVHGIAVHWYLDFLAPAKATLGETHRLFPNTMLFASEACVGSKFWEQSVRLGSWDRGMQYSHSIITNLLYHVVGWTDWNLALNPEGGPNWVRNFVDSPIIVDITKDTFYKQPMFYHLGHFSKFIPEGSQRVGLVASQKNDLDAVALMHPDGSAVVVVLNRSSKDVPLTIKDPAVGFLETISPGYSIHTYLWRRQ
The data set can be described thus: Glucocerebrosidase activity assay with blue substrate (4MU-Glc). The data set is classed as biochemical. Particulars: 4MU-Glc substrate enzyme activity assay. On the procedure: (§1) The compounds in DMSO solution 0.5 μL/well were transferred to a black 96-well plate (the final titration was 24 nM to 50 μM, 12 concentrations, 2 times dilution). 33.5 μL enzyme solution (7.5 nM final concentration) was transferred to the wells. After 5 min of incubation at room temperature, the enzyme reaction was initiated by the addition of 33 μL/well blue substrate or 66.5 μL/well red substrate. Final concentrations of the blue substrate (4MU-Glc) and red substrate (Res-Glc) were 1.5 mM and 30 μM, respectively. The red substrate reaction was measured in the Biotek Synergy H1 multi-mode plate reader with Ex=573 nm and Em=610 nm at 37° C. every 20 sec for 30 min. The blue substrate reaction was terminated by the addition of 33 μL/well stop solution (1 M NaOH and 1 M glycine mixture, pH 10) after 30 min of incubation at 37° C. The fluorescence was then measured in the plate reader at Ex=365 nm and Em=440 nm.
The recombinant wt. enzyme velaglucerase alfa (Vpriv®, Shire Human Genetic Therapies, Inc.) was obtained from residual solution after clinical infusions. The GCase activity assay buffer was composed of 50 mM citric acid, 176 mM K2HPO4, and 0.01% Tween-20 at pH 5.9. A solution of 1 M sodium hydroxide and 1 M glycine was used as the stop solution for the 4MU-β-glc substrate assay.
The compounds in DMSO solution 0.5 μL/well was transferred to a black 96-well plate (the final titration was 24 nM to 50 μM, 12 concentrations). 33.5 μL enzyme solution (7.5 nM final concentration) was transferred to the wells. After 5 min of incubation at room temperature, the enzyme reaction was initiated by the addition of 33 μL/well 4MU-Glc substrate or 66.5 μL/well red substrate. Final concentrations of the 4MU-Glc substrate and Res-Glc substrate were 1.5 mM and 30 μM, respectively. The red substrate reaction was measured in the Biotek Synergy H1 multi-mode plate reader with Ex=573 nm and Em=610 nm at 37° C. in every 20 seconds for 30 min. The 4MU-Glc substrate reaction was terminated by the addition of 33 μL/well stop solution (1 M NaOH and 1 M glycine mixture, pH 10) after 30 min of incubation at 37° C. The fluorescence was then measured in the plate reader with Ex=365 nm and Em=440 nm.

The target in data set [2] is T2, GCase (Homo sapiens, UniProt P04062).
T2 construct: purchased Shire Human Genetic Therapies, Inc. Vpriv
T2 sequence (P04062 40-536): T1 sequence (P04062 40-536)
Put plainly: Binding affinity test by FP assay (competition with probe 3). Particulars: in words; 19.5 nM to 10 μM. How it is done:
The enzyme in GCase enzyme activity buffer (25 μL/well) was added to a 384-well black plate. The fluorescent probe 3 (25 nL/well, 50 nM final concentration) was transferred to a 384-well black plate using a Labcyte Echo 550 Liquid Handler system. Compounds in DMSO stock solution (50 nL) were transferred to the plate. The plate was shaken at room temperature in dark for 20 min. The final concentration was 19.5 nM to […], 10 concentrations, 2 times dilution. The fluorescence polarization was measured in a Molecular Devices Analyst GT with Ex=535 nm and Em=580 nm, G Factor=1.05.
The enzyme in GCase enzyme activity buffer (25 μL/well) was added to a 384-wells black plate, The fluorescent probe 3 (25 nL/well, 50 nM final concentration) was transferred to a 384-wells black plate by using Labcyte Echo 550 Liquid Handler system. Compounds 1, and 2 in DMSO stock solution (50 nL) (the final titration was 19.5 nM to 10 μM, 10 concentrations) were transferred to the plate. The plate was shook at room temperature in dark for 20 min. The fluorescence polarization was measured in Molecular Devices Analyst GT with Ex=535 nm and Em=580 nm, G Factor=1.05.

In data set [3] the target is T1, glucocerebrosidase (GCase), recombinant wt. enzyme velaglucerase alfa. The data set can be described thus: Glucocerebrosidase activity assay with red substrate (Res-β-glc). The format is biochemical. The settings on record: at 50 μM. How it is done: as §1, with “nm. […]” for “nm.”
The compounds in DMSO solution 0.5 μL/well was transferred to a black 96-well plate (the final titration was 24 nM to 50 μM, 12 concentrations). […] The red substrate reaction was measured in the Biotek Synergy H1 multi-mode plate reader with Ex=573 nm and Em=610 nm at 37° C. in every 20 seconds for 30 min. […] The fluorescence was then measured in the plate reader with Ex=365 nm and Em=440 nm.

The target in data set [4] is T2, GCase. Put plainly: Fluorescence polarization (FP) assay, probe titrated with enzyme. The settings on record: probe 50 nM, enzyme 5 nM to 10 μM. The format is binding. On the procedure: The fluorescent probe 3 (25 nL/well, 50 nM final concentration) was transferred to a 384-well black plate using a Labcyte Echo 550 Liquid Handler system. The 25 μL/well enzyme dilutions with GCase enzyme activity buffer were added to the plate, which was shaken at room temperature in dark for 20 min. The final titration was 5 nM to 10 μM, 10 concentrations, 2 times dilution. The fluorescence polarization was measured in Molecular Devices Analyst GT with Ex=535 nm and Em=580 nm, G Factor=1.05.
The fluorescent probe 3 (25 nL/well, 50 nM final concentration) was transferred to a 384-wells black plate by using Labcyte Echo 550 Liquid Handler system. The 25 μL/well enzyme dilutions in GCase enzyme activity buffer (the final titration was 5 nM to 10 μM, 10 concentrations, 2 times dilution) were added to the plate, and shook at room temperature in dark for 20 min. The fluorescence polarization was measured in Molecular Devices Analyst GT with Ex=535 nm and Em=580 nm, G Factor=1.05.

Data set [5] has as its target T3, recombinant wild type GCase (Homo sapiens, UniProt P04062).
T3 construct: purchased Shire Human Genetic Therapies, Inc. Vpriv
T3 sequence (P04062 40-536): T1 sequence (P04062 40-536)
Put plainly: Covalent binding assay: activity of GCase activated by probe 4. The settings on record: natural substrate assay; covalent activation. The format is biochemical. On the procedure:
To the recombinant wild type enzyme (22 μM, 95 μL, 1 equiv) in 0.1 M phosphate buffer (pH 7.2) was added 2,5-dioxopyrrolidin-1-yl 3-(2-(2-(4-(4-(2,4-dimethylpyrrolo[1,2-a]pyrimidine-8-carboxamido)phenyl)-1H-1,2,3-triazol-1-yl)ethoxy)ethoxy)propanoate (4) in DMSO (0.89 mM, 5 μL, 2 equiv) in one portion, and was vortexed for 5 sec immediately. At indicated time points, the reaction solution (2 μL) was sampled and diluted (1:3125 dilution) into the assay buffer (50 mM citric acid, 176 mM K2HPO4, and 0.01% Tween-20 at pH 5.9). After 2 h the reaction solution was dialyzed three times with 0.1 M phosphate buffer (pH 7.2). The enzyme was adjusted to the same concentration and sampled for activity. The dilution solutions were assayed with three substrates, resorufin substrate, 4-MU substrate, and natural substrate using the method in Example 5 and Example 6 without adding compounds.
The probe 4 was subjected to the covalent binding assay against GCase. The reaction conditions, including the buffer pH value, the concentration of the protein and probe, and the reaction temperature were carefully adjusted to achieve the maximum activation. With the optimized reaction condition, the enzyme activity was activated in a time-dependent manner (FIG. 5). The enzyme could be activated by probe 4 with around 22 and 28 folds activity comparing to the wt. GCase in the 4MU-Glc substrate (FIG. 5A) and red substrate (FIG. 5B) enzyme activity assay respectively.

A short description of data set [6]: Enzyme stability assay in pH 4.7 buffer. The format is physicochemical. The text has this:
To test whether probe 4 changed the enzyme stability of GCase, we used two environments for GCase activity stability assay (Tekoah, Tzaban et al. 2013). The first one was citrate/phosphorylate buffer, which was at pH 4.7. In this condition, the wt. GCase only had about 15% activity left on day 4 (FIGS. 6A and 6B), which is similar to the previous research (Tekoah, Tzaban et al. 2013). An interesting finding was that even on day 10, activated GCase still had more than 20% activity left. […] One possible reason for the higher enzyme activity in low pH buffer was that activated GCase was stabilized by the covalent compound, and was more difficult to unfold.

Data set [7] deals with U937 macrophage cells. Put plainly: U937 macrophage uptake assay. The data set is classed as cell-based, human. The settings on record: for activity compared to endogenous GC: PMA-induced U937 cells, 4MU-β-glc substrate. How it is done: Human monocyte cell line U937 was optimally differentiated into macrophages by the addition of 75 ng/ml PMA (Brumshtein, Salinas et al. 2010) to the monocyte culture for 3 days (in 75 cm^2 flasks). Macrophages were enriched by adhesion to the culture plate and identified by morphology and receptor staining.
The assay was carried out according to the reported method (Tekoah, Tzaban et al. 2013) with slight modification. The enzyme was treated with compound 4 or DMSO at pH 7.2 for 60 min as described above, then dialyzed with PBS. U937 cells, after differentiation (˜1.6*10^6 cells), were incubated with 60 μg/ml of the activated enzymes and wt. enzyme in F12K medium for 10 min at 5% CO2, 37° C. incubator. The cells were then washed twice with ice cold PBS enriched with Mannan (1 mg/ml). To further ensure release of any proteins bound non-specifically to the membrane half of the cells were washed with ice cold glycine buffer: (0.8% NaCl, 0.038% KCl, 0.01% MgCl2, 0.01% CaCl2, 0.7% glycine [pH 3]) followed by two additional cold PBS washes. The other half of the wells were used as controls for measuring total enzymatic activity (bound and internalized enzyme). The cells were lysed by adding β-glucocerebrosidase activity buffer (60 mM phosphate-citrate buffer; 0.15% Triton X-100; 0.125% sodium taurocholate, pH 5.5), followed by pipetting and one freeze/thaw cycle. The obtained lysates were subjected to determination of enzymatic activity using the colorimetric method detailed above. The total enzymatic activity was normalized to total soluble proteins as measured by Bradford assay. The effective uptake was calculated as the percentage of activity within the cells out of the total enzymatic activity of the controls.

As to `Cc1cc(C)n2ccc(C(=O)Nc3ccc(-c4cn(CCOCCOCCN)nn4)cc3)c2n1` [No. 3, N-(4-(1-(2-(2-(2-aminoethoxy)ethoxy)ethyl)-1H-1,2,3-triazol-4-yl)phenyl)-2,4-dimethylpyrrolo[1,2-a]pyrimidine-8-carboxamide], the “maximum activity / activation activity” value in data set [1] is “around 14 folds”. Also, in data set [1] (read-out: AC50), the AC50 was determined as 6310 nM. In addition, in data set [2], the “activity in FP competition with probe 3” value is “much higher activity”. For the same molecule, the “activation of Res-β-glc substrate hydrolysis” value in data set [3] is recorded as 10 folds.
Consider `Cc1cc(C)n2ccc(C(=O)Nc3ccc(-c4cn(CCOCCOCCNC(=O)c5ccc(-c6c7ccc(=[N+](C)C)cc-7oc7cc(N(C)C)ccc67)c(C(=O)[O-])c5)nn4)cc3)c2n1` [No. 4, 2-(3,6-Bis(dimethylamino)xanthylium-9-yl)-5-((2-(2-(2-(4-(4-(2,4-dimethylpyrrolo[1,2-a]pyrimidine-8-carboxamido)phenyl)-1H-1,2,3-triazol-1-yl)ethoxy)ethoxy)ethyl)carbamoyl)benzoate], for which the dissociation constant (Kd) in data set [4] is 710 nM and ~710 nM.

B1: activated GCase: recombinant wild type GCase covalent modified by probe 4 (NHS ester) on lysine residues, 1-3 ligands (conjugate, UniProt P04062 40-536, looked up)
Lysosomal acid …: T1 sequence (P04062 40-536)
modifications: covalent probe 4 on lysines
notes: recombinant wild type GCase covalent modified by probe 4 (NHS ester) on lysine residues, 1-3 ligands
For the molecule B1, in data set [5], the activity improvement came to 16 folds. Besides, the activity left entry in data set [6] (citrate/phosphate buffer pH 4.7, day 10) is listed as “more than 20%”. In addition, in data set [7], the “activity compared to endogenous GC” value is “more than 25 folds”. In data set [7] (Western blot, activated GCase vs wt. GCase, in words), the protein uptake level result is “equal”.

B2: wt. GCase: recombinant wt. enzyme velaglucerase alfa (Vpriv, Shire Human Genetic Therapies, Inc.) (protein, UniProt P04062 40-536, looked up)
Lysosomal acid …: T1 sequence (P04062 40-536)
modifications: velaglucerase alfa
For the molecule B2, the activity left entry in data set [6] (citrate/phosphate buffer pH 4.7, day 4) is on record as “about 15%”. Besides, in data set [7], the “activity compared to endogenous GC” value is on record as “about 3 folds”.
